The values that follow come from the RNAGym collection of RNA variant scans (doi:10.1093/molbev/msab373).

First the molecules themselves.
B1: Azoarcus group I ribozyme (parent)
chain: GUGCCUUGCGCCGGGAAACCACGCAAGGGAUGGUGUCAAAUUCGGCGAAACCUAAGCGCCCGCCCGGGCGUAUGGCAACGCCGAGCCAAGCUUCGGCGCCUGCGCCGAUGAAGGUGUAGAGACUAGACGGCACCCACCUAAGGCAAACGCUAUGGUGAAGGCAUAGUCCAGGGAGUGGCGAAAGUCACACAAACCGG

Variants of B1 are the subject of the series. The series is described as follows: reverse-splicing fitness (ratio to wild type); higher = more active; in vitro selection; Mg2+ level not given. In a few lines:
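An in vitro group I ribozyme library with randomized positions was T7-transcribed and gel-purified. In triplicate, 10 pmol RNA in EPPS pH 7.5 was reacted with 50 pmoles of a 30-nt RNA substrate for 1 h at 37 °C across several added MgCl2 levels (1–48 mM), then stopped with EDTA. Products were reverse transcribed from a substrate-complementary primer, PCR-amplified and sequenced (HiSeq 4000). Fitness is a variant's read proportion after selection over that before, normalised to wild type.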
In the case of GUGCCUUGCGCCGGGAAACCACGCAAGGGAUGGUGUCAAAUUCGGCGAAACCUAAGCGCCCGCCCGGGCGUAUGGCAACGCCGAGCCAAGCUUCGGCGCCUGCGCCGAUGAAGGUGUAGGGACUAGACGGCACCCACCUAAGGCCAACGGUAUGGUGAAGGCAUAGUCGAGGGAGCGGCGAAAGUCACACAAACCGG [A120G A145C C150G C169G U176C], the reverse-splicing fitness stood at 0.0117.
With GUGCCUUGCGCCGGGAAACCACGCAAGGGAUGGUGUCAAAUUCGGCGAAACCUAAGCGCCCGCCCGGGCGUAUGGCAACGCUGAGCCAAGCUUCGGCGCCUGCGCCGAUGCAGGUGUAGCGACUAGACGGCACCCACCUAAGGCUAACGUUAUGGUGAAGGCAUAGUCUAGGGAGGGGCGAAAGUCACACAAACCGG [C82U A111C A120C A145U C150U C169U U176G], the reverse-splicing fitness came to 0.00597.
For GUGCCUUGCGCCGGGAAACCACGCAAGGGAUGGUGUCAAAUUCGGCGAAACCUAAGCGCCCGCCCGGGCGUAUGGCAACGCCGAGCCAAGCUUCGGCGCCUGCGCCGAUGAAGGUGUAGGGACUAGACGGCACCCACCUAAGGCCAACGUUAUGGUGAAGGCAUAGUCCAGGGAGGGGCGAAAGUCACACAAACCGG [A120G A145C C150U U176G], the reverse-splicing fitness amounted to 0.0108.
GUGCCUUGCGCCGGGAAACCACGCAAGGGAUGGUGUCAAAUUCGGCGAAACCUAAGCGCCCGCCCGGGCGUAUGGCAACGCGGAGCCAAGCUUCGGCGCCUGCGCCGAUGCAGGUGUAGUGACUAGACGGCACCCACCUAAGGCAAACGAUAUGGUGAAGGCAUAGUCGAGGGAGAGGCGAAAGUCACACAAACCGG [C82G A111C A120U C150A C169G U176A]: the reverse-splicing fitness is 0.00466.
GUGCCUUGCGCCGGGAAACCACGCAAGGGAUGGUGUCAAAUUCGGCGAAACCUAAGCGCCCGCCCGGGCGUAUGGCAACGCUGAGCCAAGCUUCGGCGCCUGCGCCGAUGUAGGUGUAGAGACUAGACGGCACCCACCUAAGGCUAACGUUAUGGUGAAGGCAUAGUCUAGGGAGAGGCGAAAGUCACACAAACCGG [C82U A111U A145U C150U C169U U176A]: the reverse-splicing fitness came to 0.0148.
For GUGCCUUGCGCCGGGAAACCACGCAAGGGAUGGUGUCAAAUUCGGCGAAACCUAAGCGCCCGCCCGGGCGUAUGGCAACGCGGAGCCAAGCUUCGGCGCCUGCGCCGAUGGAGGUGUAGAGACUAGACGGCACCCACCUAAGGCAAACGGUAUGGUGAAGGCAUAGUCUAGGGAGCGGCGAAAGUCACACAAACCGG [C82G A111G C150G C169U U176C], the reverse-splicing fitness stood at 0.0165.
As for GUGCCUUGCGCCGGGAAACCACGCAAGGGAUGGUGUCAAAUUCGGCGAAACCUAAGCGCCCGCCCGGGCGUAUGGCAACGCCGAGCCAAGCUUCGGCGCCUGCGCCGAUGGAGGUGUAGAGACUAGACGGCACCCACCUAAGGCAAACGGUAUGGUGAAGGCAUAGUCAAGGGAGAGGCGAAAGUCACACAAACCGG [A111G C150G C169A U176A], the figure is 0.0101.
As for GUGCCUUGCGCCGGGAAACCACGCAAGGGAUGGUGUCAAAUUCGGCGAAACCUAAGCGCCCGCCCGGGCGUAUGGCAACGCUGAGCCAAGCUUCGGCGCCUGCGCCGAUGUAGGUGUAGUGACUAGACGGCACCCACCUAAGGCGAACGAUAUGGUGAAGGCAUAGUCUAGGGAGCGGCGAAAGUCACACAAACCGG [C82U A111U A120U A145G C150A C169U U176C], the reverse-splicing fitness was 0.00345.
Regarding GUGCCUUGCGCCGGGAAACCACGCAAGGGAUGGUGUCAAAUUCGGCGAAACCUAAGCGCCCGCCCGGGCGUAUGGCAACGCCGAGCCAAGCUUCGGCGCCUGCGCCGAUGAAGGUGUAGUGACUAGACGGCACCCACCUAAGGCCAACGAUAUGGUGAAGGCAUAGUCUAGGGAGGGGCGAAAGUCACACAAACCGG [A120U A145C C150A C169U U176G], the reverse-splicing fitness was 0.00358.
Regarding GUGCCUUGCGCCGGGAAACCACGCAAGGGAUGGUGUCAAAUUCGGCGAAACCUAAGCGCCCGCCCGGGCGUAUGGCAACGCGGAGCCAAGCUUCGGCGCCUGCGCCGAUGUAGGUGUAGCGACUAGACGGCACCCACCUAAGGCGAACGAUAUGGUGAAGGCAUAGUCUAGGGAGCGGCGAAAGUCACACAAACCGG [C82G A111U A120C A145G C150A C169U U176C], the reverse-splicing fitness came out at 0.0159.
GUGCCUUGCGCCGGGAAACCACGCAAGGGAUGGUGUCAAAUUCGGCGAAACCUAAGCGCCCGCCCGGGCGUAUGGCAACGCUGAGCCAAGCUUCGGCGCCUGCGCCGAUGGAGGUGUAGGGACUAGACGGCACCCACCUAAGGCGAACGGUAUGGUGAAGGCAUAGUCGAGGGAGCGGCGAAAGUCACACAAACCGG [C82U A111G A120G A145G C150G C169G U176C]: the reverse-splicing fitness was 0.011.
As to GUGCCUUGCGCCGGGAAACCACGCAAGGGAUGGUGUCAAAUUCGGCGAAACCUAAGCGCCCGCCCGGGCGUAUGGCAACGCUGAGCCAAGCUUCGGCGCCUGCGCCGAUGAAGGUGUAGAGACUAGACGGCACCCACCUAAGGCGAACGAUAUGGUGAAGGCAUAGUCGAGGGAGGGGCGAAAGUCACACAAACCGG [C82U A145G C150A C169G U176G], the reverse-splicing fitness is 0.0053.
With GUGCCUUGCGCCGGGAAACCACGCAAGGGAUGGUGUCAAAUUCGGCGAAACCUAAGCGCCCGCCCGGGCGUAUGGCAACGCCGAGCCAAGCUUCGGCGCCUGCGCCGAUGGAGGUGUAGCGACUAGACGGCACCCACCUAAGGCAAACGAUAUGGUGAAGGCAUAGUCAAGGGAGGGGCGAAAGUCACACAAACCGG [A111G A120C C150A C169A U176G], the reverse-splicing fitness came out at 0.00468.
For GUGCCUUGCGCCGGGAAACCACGCAAGGGAUGGUGUCAAAUUCGGCGAAACCUAAGCGCCCGCCCGGGCGUAUGGCAACGCCGAGCCAAGCUUCGGCGCCUGCGCCGAUGAAGGUGUAGUGACUAGACGGCACCCACCUAAGGCAAACGCUAUGGUGAAGGCAUAGUCUAGGGAGUGGCGAAAGUCACACAAACCGG [A120U C169U] the value was 0.257; for GUGCCUUGCGCCGGGAAACCACGCAAGGGAUGGUGUCAAAUUCGGCGAAACCUAAGCGCCCGCCCGGGCGUAUGGCAACGCGGAGCCAAGCUUCGGCGCCUGCGCCGAUGUAGGUGUAGAGACUAGACGGCACCCACCUAAGGCAAACGAUAUGGUGAAGGCAUAGUCAAGGGAGUGGCGAAAGUCACACAAACCGG [C82G A111U C150A C169A], 0.0114.
